From the supplement of paper PMC5998384 come the findings set out here.

The test system of series [1] is HeLa Kyoto. The series is described as follows: solubility in G1/S (NP-40 vs SDS abundance) (log2 ratio); higher = more soluble. Conditions: cell cycle stage: G1/S.
Series [2] deals with HeLa Kyoto. The series is described as follows: solubility change mitosis vs G1/S (difference of NP-40 vs SDS log2 ratios) (log2 ratio difference); higher = more soluble in mitosis.
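Wherever solubility change mitosis vs G1/S (difference of NP-40 vs SDS log2 ratios) is given: synchronized HeLa Kyoto cells (double thymidine block for G1/S, nocodazole release for mitosis), protein amounts in NP-40 versus SDS lysates quantified by mass spectrometry, three biological replicates.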
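Wherever solubility in G1/S (NP-40 vs SDS abundance) is given: HeLa Kyoto cells arrested at G1/S by double thymidine block, proteins quantified by TMT10plex mass spectrometry in mild NP-40 versus SDS extracts, three biological replicates.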

In the case of “MGVDFDVKTFCHNLRATKPPYECPVETCRKVYKSYSGIEYHLYHYDHDNPPPPQQTPLRKHKKKGRQSRPANKQSPSPSEVSQSPGREVMSYAQAQRMVEVDLHGRVHRISIFDNLDVVSEDEEAPEEAPENGSNKENTETPAATPKSGKHKNKEKRKDSNHHHHHNVSASTTPKLPEVVYRELEQDTPDAPPRPTSYYRYIEKSAEELDEEVEYDMDEEDYIWLDIMNERRKTEGVSPIPQEIFEYLMDRLEKESYFESHNKGDPNALVDEDAVCCICNDGECQNSNVILFCDMCNLAVHQECYGVPYIPEGQWLCRRCLQSPSRAVDCALCPNKGGAFKQTDDGRWAHVVCALWIPEVCFANTVFLEPIDSIEHIPPARWKLTCYICKQRGSGACIQCHKANCYTAFHVTCAQQAGLYMKMEPVRETGANGTSFSVRKTAYCDIHTPPGSARRLPALSHSEGEEDEDEEEDEGKGWSSEKVKKAKAKSRIKMKKARKILAEKRAAAPVVSVPCIPPHRLSKITNRLTIQRKSQFMQRLHSYWTLKRQSRNGVPLLRRLQTHLQSQRNCDQVGRDSEDKNWALKEQLKSWQRLRHDLERARLLVELIRKREKLKRETIKVQQIAMEMQLTPFLILLRKTLEQLQEKDTGNIFSEPVPLSEVPDYLDHIKKPMDFFTMKQNLEAYRYLNFDDFEEDFNLIVSNCLKYNAKDTIFYRAAVRLREQGGAVLRQARRQAEKMGIDFETGMHIPHSLAGDEATHHTEDAAEEERLVLLENQKHLPVEEQLKLLLERLDEVNASKQSVGRSRRAKMIKKEMTALRRKLAHQRETGRDGPERHGPSSRGSLTPHPAACDKDGQTDSAAEESSSQETSKGLGPNMSSTPAHEVGRRTSVLFSKKNPKTAGPPKRPGRPPKNRESQMTPSHGGSPVGPPQLPIMSSLRQRKRGRSPRPSSSSDSDSDKSTEDPPMDLPANGFSGGNQPVKKSFLVYRNDCSLPRSSSDSESSSSSSSSAASDRTSTTPSKQGRGKPSFSRGTFPEDSSEDTSGTENEAYSVGTGRGVGHSMVRKSLGRGAGWLSEDEDSPLDALDLVWAKCRGYPSYPALIIDPKMPREGMFHHGVPIPVPPLEVLKLGEQMTQEAREHLYLVLFFDNKRTWQWLPRTKLVPLGVNQDLDKEKMLEGRKSNIRKSVQIAYHRALQHRSKVQGEQSSETSDSD [BRPF1]”, in the series on HeLa Kyoto [1], the “solubility in G1/S (log2)” value was -1.3. Also, the “solubility change mitosis (log2)” value in the series on HeLa Kyoto [2] came out at 0.44.

For “MSELKDCPLQFHDFKSVDHLKVCPRYTAVLARSEDDGIGIEELDTLQLELETLLSSASRRLRVLEAETQILTDWQDKKGDRRFLKLGRDHELGAPPKHGKPKKQKLEGKAGHGPGPGPGRPKSKNLQPKIQEYEFTDDPIDVPRIPKNDAPNRFWASVEPYCADITSEEVRTLEELLKPPEDEAEHYKIPPLGKHYSQRWAQEDLLEEQKDGARAAAVADKKKGLMGPLTELDTKDVDALLKKSEAQHEQPEDGCPFGALTQRLLQALVEENIISPMEDSPIPDMSGKESGADGASTSPRNQNKPFSVPHTKSLESRIKEELIAQGLLESEDRPAEDSEDEVLAELRKRQAELKALSAHNRTKKHDLLRLAKEEVSRQELRQRVRMADNEVMDAFRKIMAARQKKRTPTKKEKDQAWKTLKERESILKLLDG [TADA3]”, the “solubility in G1/S (log2)” value in the series on HeLa Kyoto [1] was 0.646. Further, the “solubility change mitosis (log2)” value in the series with HeLa Kyoto [2] is 0.286.

Regarding “MNVTSIALRAETWLLAAWHVKVPPMWLEACINWIQEENNNVNLSQAQMNKQVFEQWLLTDLRDLEHPLLPDGILEIPKGELNGFYALQINSLVDVSQPAYSQIQKLRGKNTTNDLVTAEAQVTPKPWEAKPSRMLMLQLTDGIVQIQGMEYQPIPILHSDLPPGTKILIYGNISFRLGVLLLKPENVKVLGGEVDALLEEYAQEKVLARLIGEPDLVVSVIPNNSNENIPRVTDVLDPALGPSDEELLASLDENDELTANNDTSSERCFTTGSSSNTIPTRQSSFEPEFVISPRPKEEPSNLSIHVMDGELDDFSLEEALLLEETVQKEQMETKELQPLTFNRNADRSIERFSHNPNTTNNFSLTCKNGNNNWSEKNVSEQMTNEDKSFGCPSVRDQNRSIFSVHCNVPLAHDFTNKEKNLETDNKIKQTSSSDSHSLNNKILNREVVNYVQKRNSQISNENDCNLQSCSLRSSENSINLSIAMDLYSPPFVYLSVLMASKPKEVTTVKVKAFIVTLTGNLSSSGGIWSITAKVSDGTAYLDVDFVDEILTSLIGFSVPEMKQSKKDPLQYQKFLEGLQKCQRDLIDLCCLMTISFNPSLSKAMVLALQDVNMEHLENLKKRLNK [RMI1]”, the “solubility in G1/S (log2)” value in the series on HeLa Kyoto [1] was -0.0709. Moreover, in the series with HeLa Kyoto [2], the “solubility change mitosis (log2)” value was 0.0277.

Consider “MDVDAEREKITQEIKELERILDPGSSGSHVEISESSLESDSEADSLPSEDLDPADPPISEEERWGEASNDEDDPKDKTLPEDPETCLQLNMVYQEVIQEKLAEANLLLAQNREQQEELMRDLAGSKGTKVKDGKSLPPSTYMGHFMKPYFKDKVTGVGPPANEDTREKAAQGIKAFEELLVTKWKNWEKALLRKSVVSDRLQRLLQPKLLKLEYLHQKQSKVSSELERQALEKQGREAEKEIQDINQLPEEALLGNRLDSHDWEKISNINFEGSRSAEEIRKFWQNSEHPSINKQEWSREEEERLQAIAAAHGHLEWQKIAEELGTSRSAFQCLQKFQQHNKALKRKEWTEEEDRMLTQLVQEMRVGSHIPYRRIVYYMEGRDSMQLIYRWTKSLDPGLKKGYWAPEEDAKLLQAVAKYGEQDWFKIREEVPGRSDAQCRDRYLRRLHFSLKKGRWNLKEEEQLIELIEKYGVGHWAKIASELPHRSGSQCLSKWKIMMGKKQGLRRRRRRARHSVRWSSTSSSGSSSGSSGGSSSSSSSSSEEDEPEQAQAGEGDRALLSPQYMVPDMDLWVPARQSTSQPWRGGAGAWLGGPAASLSPPKGSSASQGGSKEASTTAAAPGEETSPVQVPARAHGPVPRSAQASHSADTRPAGAEKQALEGGRRLLTVPVETVLRVLRANTAARSCTQKEQLRQPPLPTSSPGVSSGDSVARSHVQWLRHRATQSGQRRWRHALHRRLLNRRLLLAVTPWVGDVVVPCTQASQRPAVVQTQADGLREQLQQARLASTPVFTLFTQLFHIDTAGCLEVVRERKALPPRLPQAGARDPPVHLLQASSSAQSTPGHLFPNVPAQEASKSASHKGSRRLASSRVERTLPQASLLASTGPRPKPKTVSELLQEKRLQEARAREATRGPVVLPSQLLVSSSVILQPPLPHTPHGRPAPGPTVLNVPLSGPGAPAAAKPGTSGSWQEAGTSAKDKRLSTMQALPLAPVFSEAEGTAPAASQAPALGPGQISVSCPESGLGQSQAPAASRKQGLPEAPPFLPAAPSPTPLPVQPLSLTHIGGPHVATSVPLPVTWVLTAQGLLPVPVPAVVSLPRPAGTPGPAGLLATLLPPLTETRAAQGPRAPALSSSWQPPANMNREPEPSCRTDTPAPPTHALSQSPAEADGSVAFVPGEAQVAREIPEPRTSSHADPPEAEPPWSGRLPAFGGVIPATEPRGTPGSPSGTQEPRGPLGLEKLPLRQPGPEKGALDLEKPPLPQPGPEKGALDLGLLSQEGEAATQQWLGGQRGVRVPLLGSRLPYQPPALCSLRALSGLLLHKKALEHKATSLVVGGEAERPAGALQASLGLVRGQLQDNPAYLLLRARFLAAFTLPALLATLAPQGVRTTLSVPSRVGSESEDEDLLSELELADRDGQPGCTTATCPIQGAPDSGKCSASSCLDTSNDPDDLDVLRTRHARHTRKRRRLV [SNAPC4]”, for which, in the series with HeLa Kyoto [1], the “solubility in G1/S (log2)” value worked out at 0.0147. In addition, the “solubility change mitosis (log2)” value with HeLa Kyoto [2] is -0.0345.

As for “MAGTALKRLMAEYKQLTLNPPEGIVAGPMNEENFFEWEALIMGPEDTCFEFGVFPAILSFPLDYPLSPPKMRFTCEMFHPNIYPDGRVCISILHAPGDDPMGYESSAERWSPVQSVEKILLSVVSMLAEPNDESGANVDASKMWRDDREQFYKIAKQIVQKSLGL [UBE2G2]”, in the series with HeLa Kyoto [1], the “solubility in G1/S (log2)” value was 0.6. Further, the “solubility change mitosis (log2)” value with HeLa Kyoto [2] stood at 0.17.

Consider “MRPKTFPATTYSGNSRQRLQEIREGLKQPSKSSVQGLPAGPNSDTSLDAKVLGSKDATRQQQQMRATPKFGPYQKALREIRYSLLPFANESGTSAAAEVNRQMLQELVNAGCDQEMAGRALKQTGSRSIEAALEYISKMGYLDPRNEQIVRVIKQTSPGKGLMPTPVTRRPSFEGTGDSFASYHQLSGTPYEGPSFGADGPTALEEMPRPYVDYLFPGVGPHGPGHQHQHPPKGYGASVEAAGAHFPLQGAHYGRPHLLVPGEPLGYGVQRSPSFQSKTPPETGGYASLPTKGQGGPPGAGLAFPPPAAGLYVPHPHHKQAGPAAHQLHVLGSRSQVFASDSPPQSLLTPSRNSLNVDLYELGSTSVQQWPAATLARRDSLQKPGLEAPPRAHVAFRPDCPVPSRTNSFNSHQPRPGPPGKAEPSLPAPNTVTAVTAAHILHPVKSVRVLRPEPQTAVGPSHPAWVPAPAPAPAPAPAPAAEGLDAKEEHALALGGAGAFPLDVEYGGPDRRCPPPPYPKHLLLRSKSEQYDLDSLCAGMEQSLRAGPNEPEGGDKSRKSAKGDKGGKDKKQIQTSPVPVRKNSRDEEKRESRIKSYSPYAFKFFMEQHVENVIKTYQQKVNRRLQLEQEMAKAGLCEAEQEQMRKILYQKESNYNRLKRAKMDKSMFVKIKTLGIGAFGEVCLACKVDTHALYAMKTLRKKDVLNRNQVAHVKAERDILAEADNEWVVKLYYSFQDKDSLYFVMDYIPGGDMMSLLIRMEVFPEHLARFYIAELTLAIESVHKMGFIHRDIKPDNILIDLDGHIKLTDFGLCTGFRWTHNSKYYQKGSHVRQDSMEPSDLWDDVSNCRCGDRLKTLEQRARKQHQRCLAHSLVGTPNYIAPEVLLRKGYTQLCDWWSVGVILFEMLVGQPPFLAPTPTETQLKVINWENTLHIPAQVKLSPEARDLITKLCCSADHRLGRNGADDLKAHPFFSAIDFSSDIRKQPAPYVPTISHPMDTSNFDPVDEESPWNDASEGSTKAWDTLTSPNNKHPEHAFYEFTFRRFFDDNGYPFRCPKPSGAEASQAESSDLESSDLVDQTEGCQPVYV [LATS2]”, for which the “solubility in G1/S (log2)” value in the series on HeLa Kyoto [1] was found to be 0.178. Further, in the series with HeLa Kyoto [2], the “solubility change mitosis (log2)” value is -0.0575.

Turning to “MSGSDGGLEEEPELSITLTLRMLMHGKEVGSIIGKKGETVKRIREQSSARITISEGSCPERITTITGSTAAVFHAVSMIAFKLDEDLCAAPANGGNVSRPPVTLRLVIPASQCGSLIGKAGTKIKEIRETTGAQVQVAGDLLPNSTERAVTVSGVPDAIILCVRQICAVILESPPKGATIPYHPSLSLGTVLLSANQGFSVQGQYGAVTPAEVTKLQQLSSHAVPFATPSVVPGLDPGTQTSSQEFLVPNDLIGCVIGRQGSKISEIRQMSGAHIKIGNQAEGAGERHVTITGSPVSIALAQYLITACLETAKSTSGGTPSSAPADLPAPFSPPLTALPTAPPGLLGTPYAISLSNFIGLKPMPFLALPPASPGPPPGLAAYTAKMAAANGSKKAERQKFSPY [PCBP4]”, in the series with HeLa Kyoto [1], the “solubility in G1/S (log2)” value was found to be 0.0231. In addition, the “solubility change mitosis (log2)” value with HeLa Kyoto [2] came to 0.0329.

“MQLEIQVALNFIISYLYNKLPRRRVNIFGEELERLLKKKYEGHWYPEKPYKGSGFRCIHIGEKVDPVIEQASKESGLDIDDVRGNLPQDLSVWIDPFEVSYQIGEKGPVKVLYVDDNNENGCELDKEIKNSFNPEAQVFMPISDPASSVSSSPSPPFGHSAAVSPTFMPRSTQPLTFTTATFAATKFGSTKMKNSGRSNKVARTSPINLGLNVNDLLKQKAISSSMHSLYGLGLGSQQQPQQQQQPAQPPPPPPPPQQQQQQKTSALSPNAKEFIFPNMQGQGSSTNGMFPGDSPLNLSPLQYSNAFDVFAAYGGLNEKSFVDGLNFSLNNMQYSNQQFQPVMAN [TOB1]”: in the series with HeLa Kyoto [1], the “solubility in G1/S (log2)” value is 0.14. In addition, the “solubility change mitosis (log2)” value with HeLa Kyoto [2] was -0.114.

In the case of BAHCC1, the “solubility in G1/S (log2)” value in the series with HeLa Kyoto [1] was -0.00383. Also, the “solubility change mitosis (log2)” value in the series on HeLa Kyoto [2] is 0.257.
